Test results reported in patent publication US12630850B2, “Enzymatic break down of chlorogenic acid in sunflower-containing products” (Chapman University, priority 2022, dated 2026).

What was measured:
[1] = HPLC quantification of CGA in sunflower flour cookies; format: biochemical; settings: SFF cookies; 0.09 mg/g flour, pre- and direct treatment
Description: Cookie formulations and baking conditions. The cookie dough formulation consisted of baking soda (2.2 g), salt (2.2 g), whole egg (46.8 g), maple syrup (76.3 g), vanilla extract (2.2 g), flour (145.8 g), and butter (87.5 g). CGA esterase treatments in SFF, utilized almond butter instead of SFB. The wet (sunflower or almond butter, maple syrup, eggs, and vanilla extract) and dry (flour, baking soda, and salt) ingredients were mixed separately and subsequently combined and mixed for 75 s with an electric hand mixer. The dough was rolled out and cut to the following dimensions: 6 mm thickness and 40 mm diameter. Cookies were baked for 7 min in a convection oven preheated to 149° C. (300° F.) and allowed to cool at room temperature for 10 min before further analysis.
Preparation of sunflower flour cookies with CGA esterase. […]
High-performance liquid chromatography (HPLC) quantification of phenolic content in sunflower cookies. […] The extract was filtered through 0.20 μm syringe filters and analyzed with an Agilent 1260 Infinity II system (Agilent Technologies) equipped with a quaternary pump (G7111B), vial sampler (G7129A), and diode array detector (HS G7117C). […] CGA and caffeic acid concentrations were detected at 320 nm and quantified using a standard curve between 0.00-0.10 mg ml^−1 CGA (y=172287x, R^2=0.994) and caffeic acid (y=248557x, R^2=0.967).

[2] = CGA and CA content of sunflower protein isolates (HPLC); format: biochemical; settings: enzyme present
Description: Sunflower meal and sunflower protein treatment with chlorogenic acid esterase. Sunflower seeds were ground using a KitchenAid coffee grinder in two 30 s increments and sieved through a 500 μm filter to make SFM. Two defatting methods were used: cold press and hexane extraction. To make cold pressed SFM, ground seeds were pressed in a Carver Hydraulic Unit Model 3912 3852-0 five times to a pressure of 9,000-10,000 psi. For hexane extracted SFM, fat was removed from ground seeds using a Soxhlet apparatus in 250 mL hexane for 18 h and subsequently dried using a Fischer Scientific Isotemp Oven Model 516G at 45° C. for 3 h. Cold pressed, hexane extracted, and undefatted SFM were then sieved through a 500 μm filter.
To make SPI, 12.5 g of cold pressed, hexane extracted, and undefatted SFM were buffered in 50 mM HEPES at pH 8.0. Samples were continuously stirred for about 10 min until all SFM was completely suspended. Then, 0.2 mg of CGA esterase per g of SFM was added. The final volume for all reactions was 125 mL. In untreated samples, a buffered solution of 50 mM HEPES, pH 8.0 was added instead of the enzyme solution. After 10 min, 0.1 M NaOH was added to each solution until pH reached 9.00±0.03. Samples were left to sit for 30 min and then centrifuged at 5,000 rpm for 20 min at 4° C. The supernatant was placed back into a 250 mL beaker and pH was lowered using 0.1 M HCl to reach an isoelectric pH of 5.00±0.03. Samples were allowed to precipitate at 4° C. overnight (14-16 h). The supernatant was discarded, and the precipitate was lyophilized for 20 h. All experiments (controls and CGA esterase treated samples) were duplicated.
HPLC quantification of CGA and CA in sunflower meal and protein isolates. All solutions were diluted ten-fold in 0.1% formic acid in HPLC-grade water before analysis. Quantification of CGA and CA concentration was performed using an Agilent 1260 series HPLC instrument (Agilent Technologies) equipped with a quaternary pump, an automated sample injector, a diode array detector, and a 4.6 mm×150 mm Luna C18(2) column with a 5 μm particle size and 100 Å pore size (Phenomenex). The injection volume was 20 μL. To elute analytes, mobile phases composed of 0.1% formic acid in HPLC-grade water (A) and 0.1% formic acid in HPLC-grade acetonitrile (B) were used in a linear gradient. The gradient is as follows: 0 to 13% B in 1 min, up to 27% B at 8 min, up to 100% B at 8.5 min, isocratic at 100% B to 9.5 min, 100% B returned to 0% B at 9.6 min with 3 min post-time. The concentrations of CGA and CA were calculated from peak integration data based on 10-point standard curve that spanned a concentration range of 0 to 0.1 mg mL^−1.

- Effect of enzyme addition on CGA [1]: nearly complete elimination of CGA
B1: CGA esterase: CGA esterase from L. helveticus (Genbank ID: WP_025283955.1, Uniprot ID: U6F2K7), expressed in Escherichia coli; the dimer is the active form (protein, listed as Lactobacillus helveticus)
chain: MSRITIERDGLTLVGDREEPFGEIYDMAIIMHGFAANRNTDLLRQIADDLRDENVASVRFDFNGHGESDGKFEDMTVCNEIADGKAILDYVRTDPHVRDIFLVGHSQGGVVASMLAGLYPDVVKKVVLLAPAAQLKDDALRSNTQGATYDPNHIPDWPLVGNKLGMKLGGFYLRTAQVLPIYEVSQCFTRPVSVIAGTNDQWDPKYAKKYDEVYENSELHMIPNADHRFSGGYKDMAADLTAQFLKPAF
- mg CA/g protein ([2]; SPI from cold pressed SFM): 3.62 ± 0.05 mg CA/g protein
- mg CGA/g protein ([2]; SPI from cold pressed SFM): 0.00 ± 0.00 mg CGA/g protein
- mg CA/g protein ([2]; SPI from hexane extracted SFM): 3.38 ± 0.25 mg CA/g protein
- mg CGA/g protein ([2]; SPI from hexane extracted SFM): 0.00 ± 0.00 mg CGA/g protein
- mg CA/g protein ([2]; SPI from undefatted SFM): 1.11 ± 0.38 mg CA/g protein
- mg CGA/g protein ([2]; SPI from undefatted SFM): 0.00 ± 0.00 mg CGA/g protein
